{
  "source": "patent US10364299B2",
  "about": "“Derivatives obtained from hyaluronic acid and carnosine” (CONSIGLIO NAZIONALE DELLE RICERCHE, priority 2014, dated 2019)",
  "key": {"[1]": {"target": "T1, human serum carnosinase (CN1) (Homo sapiens, UniProt Q96KN2)", "T1 construct": "made in house; host or cells: HeLa cells, stably transfected; enzyme purified from the culture medium", "T1 sequence (Q96KN2 26-507)": "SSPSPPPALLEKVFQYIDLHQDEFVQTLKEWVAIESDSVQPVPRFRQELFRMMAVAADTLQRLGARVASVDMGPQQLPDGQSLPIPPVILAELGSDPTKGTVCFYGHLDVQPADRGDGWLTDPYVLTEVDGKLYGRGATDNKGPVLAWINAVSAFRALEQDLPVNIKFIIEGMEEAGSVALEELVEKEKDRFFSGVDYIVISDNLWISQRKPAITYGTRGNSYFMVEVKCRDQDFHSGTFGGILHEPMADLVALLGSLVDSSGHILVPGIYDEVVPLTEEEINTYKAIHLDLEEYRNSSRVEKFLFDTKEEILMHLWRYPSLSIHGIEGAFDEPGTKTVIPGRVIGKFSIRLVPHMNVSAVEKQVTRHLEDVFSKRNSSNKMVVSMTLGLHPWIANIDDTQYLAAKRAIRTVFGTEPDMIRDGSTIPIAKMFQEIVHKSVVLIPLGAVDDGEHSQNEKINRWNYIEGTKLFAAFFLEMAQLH", "experiment": "Enzymatic hydrolysis by human serum carnosinase", "format": "in vitro ADME", "settings": "900 μM, 37°C, 50 mM Tris/HCl pH 8.0, 5 hours; versus non-conjugated carnosine", "protocol": "The time-dependent stability of HyCar with respect to human serum carnosinase, compared with the stability of the mixture of carnosine+HA or carnosine alone, was determined by incubating each of these substances (900 μM) at 37° C. in 50 mM Tris/HCl (pH 8.0) with the above-mentioned enzyme (CN1), purified by the culture medium of Hela cells stably transfected as previously indicated (Antioxid. Redox Signal., 11, 2759, 2009). A parallel experiment was effected as negative control, in which hyaluronic acid alone was subjected to enzymatic action. The course of the reaction was followed by collecting, at various time intervals, 50 μl aliquots of the mixture for a total of 5 hours, and, after deproteinization with trichloroacetic acid (TCA), fluorometrically determining the quantity of histidine in the final solution, after reaction with ortho-phthalic aldehyde (OPA; Fluka), according to a procedure already described (Clin. Chim. Acta, 1982, 123, 221).\nMore specifically, FIG. 5 indicates the stability with time of HyCar (●), subjected to the action of human serum carnosinase, compared with the stability of carnosine (▪), carnosine+HA (▴), and HA alone (♦)(the latter used as negative control of the experiment). The histidine released was spectrophotometrically determined as OPA-derivative."}, "[2]": {"experiment": "Intrinsic viscosity by size exclusion chromatography with triple detector", "format": "physicochemical", "settings": "for Intrinsic viscosity: 40°C, 0.1M sodium nitrate", "protocol": "Experiments aimed at determining the molecular weight distribution (MWD) and the intrinsic viscosity of the conjugated HyCar were effected on a CPG/SEC chromatographic system equipped with a Malvern triple detector (ViscoteckTDmax).\nThe parameters indicated above were determined by means of size exclusion chromatography carried out on the chromatographic system GPCmax VE 2001 (Malvern), equipped with two TSK-GEL GMPWXL columns (7.8 mm ID×30 cm; Viscotek-TOSOH BIOSCIENCE) installed in series. The system is coupled with a system of three detectors positioned in series and comprising: a refraction index detector, a light scattering detector and a four-capillary differential viscometer. The sample was eluted using an aqueous solution 0.1M of sodium nitrate containing 0.5 g/L of sodium azide with a flow of 0.6 ml/min, at 40° C. The software Omnisec 4.1 was used for the acquisition and data analysis.\nThe physical parameters relating to the intrinsic viscosity and molecular weight (MW), determined at different concentrations for the conjugate of hyaluronic acid-carnosine, compared with those of the corresponding hyaluronic acid, determined by means of size exclusion chromatography coupled with a triple detector, are indicated in Table 1 below."}},
  "data": [
    {"substance": "conjugated 3-N-hyaluronyl of 2-(3-aminopropanamide)-3-(1H-imidazol-4-yl)propanoic acid [HyCar (7%)190 kD]", "values": [
      {"measurement": "resistance to the action of human serum carnosinase", "setting": "[1]", "result": "greater resistance"},
      {"measurement": "intrinsic viscosity compared with non-conjugated hyaluronic acid of the same MW (in words)", "setting": "[2]", "result": "only slightly lower"},
      {"measurement": "Intrinsic viscosity", "setting": "[2]; theoretical conc. 0.1 mg/ml", "result": 4.9, "unit": "dL/g"},
      {"measurement": "Intrinsic viscosity", "setting": "[2]; theoretical conc. 0.25 mg/ml", "result": 4.8, "unit": "dL/g"},
      {"measurement": "Intrinsic viscosity", "setting": "[2]; theoretical conc. 0.5 mg/ml", "result": 4.8, "unit": "dL/g"}
    ]}
  ]
}
